Measurements: US20090022717A1 (CHEMOCENTRYX, published 2009)

T1: CXCR2 (UniProt P25025 1-360, limits assumed)
T1 construct: whole, on cells
T1 sequence (looked up): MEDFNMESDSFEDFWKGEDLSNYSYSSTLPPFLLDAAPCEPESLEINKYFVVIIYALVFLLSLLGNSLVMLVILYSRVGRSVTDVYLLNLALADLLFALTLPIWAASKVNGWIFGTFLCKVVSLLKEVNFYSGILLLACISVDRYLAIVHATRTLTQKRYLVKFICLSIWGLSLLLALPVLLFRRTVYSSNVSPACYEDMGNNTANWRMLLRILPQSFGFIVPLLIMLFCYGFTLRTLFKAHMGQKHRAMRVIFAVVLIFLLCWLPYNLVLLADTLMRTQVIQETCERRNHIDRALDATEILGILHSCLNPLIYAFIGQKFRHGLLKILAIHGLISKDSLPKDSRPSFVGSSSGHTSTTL

B1: monoclonal antibody 6E10 (antibody, V domains shown)
VH: EVKLDETGGGLVQPGRPMKLSCVASGFTFSDYWMNWVRQSPEKGLEWVGQIRNKPYNYETYYSDSVKGRFTISRDDSKSSVYLQMNNLRTEDTGIYYCTSLRYWGQGTLVTVSA
VL: DIVMTQSPSSLTVTAGEKVTMSCKSSHSLLNSGIQKNFLTWYQQKPGQPPKVLIYWAFTRESGVPERFTGSGSGTDFTLTISSVQAEDLAVYYCQSDYTYPFTFGSGTKLEIKR
notes: Mouse hybridoma monoclonal raised by gene gun immunisation with CXCR7 cDNA
B2: monoclonal antibody 11G8 (antibody, V domains shown)
VH: EVKLVESGGDLVQPGGSLKLSCATSGFTFSDYYMFWVRQTPEKRLEWVAYITNGGDRSYYSDTVTGRFIISRDNAKNTLYLQMSRLKSEDTAMYYCARQGNWAAWFVYWGQGTLVTVSA
VL: DVLMTQTPLSLPVSLGDQASISCRSSHYIVHSDGNTYLEWYLQKPGQSPKLLIYKVSNRFSGVPDRFSGSGSGTDFTLKISRVEAEDLGIYYCFQGSHVPLTFGAGTKLELKR
notes: as for B1

Experiments:
monoclonal antibody 11G8 [1] = target: B2; experiment: peptide competition of antibody staining of CXCR7-expressing cells, FACS
Description: (§1) We have established that both 11G8 and 6E10 antibodies recognize CXCR7 receptor expressed on the surface of cells by FACS. This is represented as an increase in florescent signal (filled) over background (open line) along the X axis of FACS plot (FIG. 2). To interrogate which amino acid residues 11G8 and 6E10 recognize and bind to, a number of short peptides (0.5-5 μg) derived from the CXCR7 sequence were pre-incubated with either antibody (0.5-5 μg) in 100 μl PBS. This mixture was then incubated with 500,000 cells expressing CXCR7 for 15 minutes at room temperature. If the antibody recognized the sequence encoded by the peptide, then the peptide would effectively compete antibody away from binding to the cell associated receptor resulting in a subsequent reduction in florescence on a FACS plot. […] These readouts are exemplified in FIG. 2 with “no peptide” representing […] antibody staining, “peptide 2.2.1” representing peptide competition, and “peptide 2.3.4” representing no peptide competition. Through slight alternations of the peptide sequence in this assay, the minimal peptide sequence necessary for antibody recognition was discerned. FIG. 3 illustrates a summary of peptides that competed with either antibody 11G8 or 6E10.

monoclonal antibody 11G8 [2] = target: B2; experiment: peptide pre-incubated with antibody, then FACS staining of CXCR7-expressing cells (FIG. 2, 11G8 on 435-CXCR7 cells)
Description: as §1

monoclonal antibody 6E10 = target: B1; experiment: peptide competition of antibody staining of CXCR7-expressing cells, FACS
Description: as §1

human CXCR7 = target: T2, human CXCR7 (human, UniProt P25106 1-362); experiment: flow cytometry on CXCR7 transfectants (HEK 293) and on HeLa and MCF-7 cells
T2 construct: also called RDC1; CCX-CKR2
T2 sequence (P25106 whole entry): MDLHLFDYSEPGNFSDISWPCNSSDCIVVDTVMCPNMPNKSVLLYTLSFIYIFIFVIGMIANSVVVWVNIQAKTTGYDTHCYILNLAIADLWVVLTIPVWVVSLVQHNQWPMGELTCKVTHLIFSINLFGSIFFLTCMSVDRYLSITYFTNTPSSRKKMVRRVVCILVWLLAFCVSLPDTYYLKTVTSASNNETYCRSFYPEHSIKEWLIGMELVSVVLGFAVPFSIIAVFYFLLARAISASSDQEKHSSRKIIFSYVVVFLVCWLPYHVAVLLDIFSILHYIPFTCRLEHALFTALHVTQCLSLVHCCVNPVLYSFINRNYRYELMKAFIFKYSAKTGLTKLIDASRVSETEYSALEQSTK

mouse CXCR7 = target: T3, mouse CXCR7 (mouse, UniProt P56485 1-362); experiment: detection on mouse 4T1 mammary tumor cells and Lewis lung carcinoma cells
T3 construct: whole, on cells; Endogenous on the mouse mammary tumor line 4T1 and on Lewis lung carcinoma cells; also E13 fetal mouse sections; also called mouse homolog of CXCR7
T3 sequence (P56485 whole entry): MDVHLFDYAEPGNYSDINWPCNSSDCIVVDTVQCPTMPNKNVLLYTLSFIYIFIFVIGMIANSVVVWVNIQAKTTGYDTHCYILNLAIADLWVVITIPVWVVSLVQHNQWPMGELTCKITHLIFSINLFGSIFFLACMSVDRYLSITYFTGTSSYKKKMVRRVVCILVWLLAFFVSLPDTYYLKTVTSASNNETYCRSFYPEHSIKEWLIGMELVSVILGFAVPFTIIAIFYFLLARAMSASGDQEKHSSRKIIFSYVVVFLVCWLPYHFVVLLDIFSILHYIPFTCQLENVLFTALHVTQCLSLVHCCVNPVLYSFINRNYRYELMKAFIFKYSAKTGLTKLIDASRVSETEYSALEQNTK

CXCR2 = target: T1, CXCR2; experiment: flow cytometry on transfected HEK 293 cells

binding result (monoclonal antibody 11G8 [1]) | binding result (monoclonal antibody 6E10) | Binder | further results
binds |  | DYSEPGNFSDISWPC (also called Peptide 9C4) [SEQ ID NO 11] | 
binds |  | YSDINWPC (also called Peptide 2.2.3) [SEQ ID NO 14] | 
 |  | PCNSSDCIV [peptide 2.3.4] | binding result (monoclonal antibody 11G8 [2]): no binding
binds | binds | FSDISWPCNSSDCIVVD (also called Peptide 2) [SEQ ID NO 2] | 
 | binds | SWPCNSSDCIVV (also called Peptide 2.1.2) [SEQ ID NO 9] | 
 | binds | NWPCNSSDCIVV (also called Peptide 2.2.6) [SEQ ID NO 17] | 
 | binds | DISWPCNSSDCI (also called Peptide 2.1.1) [SEQ ID NO 8] | 
 | binds | WPCNSSDCIVV (also called Peptide 2.2.5) [SEQ ID NO 16] | 
binds |  | FSDISWPC (also called Peptide 2.2.1) [SEQ ID NO 12] | 
binds |  | NFSDISWP (also called Peptide 2.3.1) [SEQ ID NO 18] | 
 |  | B1 | binding result (human CXCR7): binds; binding result (mouse CXCR7): binds; binding result (CXCR2): no binding
 |  | B2 | binding result (human CXCR7): binds; binding result (mouse CXCR7): binds; binding result (CXCR2): no binding
